Data taken from patent publication US20120129776A1.

Biological target: MrgX1 (Mas-related G-protein coupled receptor member X1) (UniProt Q96LB2)
Assay: cell-based or functional assay

Sequence of MrgX1 (Mas-related G-protein coupled receptor member X1) (Q96LB2 whole entry): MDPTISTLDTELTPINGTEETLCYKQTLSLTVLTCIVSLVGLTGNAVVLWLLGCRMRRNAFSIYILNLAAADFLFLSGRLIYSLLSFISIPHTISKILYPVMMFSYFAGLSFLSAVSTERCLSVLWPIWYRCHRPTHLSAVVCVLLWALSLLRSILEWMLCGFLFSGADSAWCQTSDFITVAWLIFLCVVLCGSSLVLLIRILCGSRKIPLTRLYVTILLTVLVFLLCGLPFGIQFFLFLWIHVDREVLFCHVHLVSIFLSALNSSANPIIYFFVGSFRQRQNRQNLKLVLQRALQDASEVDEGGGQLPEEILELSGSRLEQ

In the case of “BAM22 (bovine adrenal medulla peptide 22) (from UniProt P01211 206-227)”, the EC50 of calcium flux dose response is reported as > 0.05 µM.
